{"source": "patent US20140018304A1", "about": "(INDUSTRY ACADEMIC COOPERATION FOUNDATION YONSEI UNIVERSITY, published 2014)", "binders": {"B1": {"name": "PAUF-Myc/His from pcDNA3.1(+)-PAUF-Myc/His (other, UniProt Q96DA0 17-172, looked up)", "chain": "GKMYGPGGGKYFSTTEDYDHEITGLRVSVGLLLVKSVQVKLGDSWDVKLGALGGNTQEVTLQPGEYITKVFVAFQAFLRGMVMYTSKDRYFYFGKLDGQISSAYPSQEGQVLVGIYGQYQLLGIKSIGFEWNYPLEEPTTEPPVNLTYSANSPVGR", "notes": "In vivo experiment: expressed in HeLa cells, total proteins and culture medium reacted with Ni-NTA resin; also called PAUF-His; His-PAUF; not shown: Myc/His tag of the pcDNA3.1(+)-Myc/His vector (Invitrogen)"}}, "key": {"[1]": {"molecular_target": "T1, Bacterial Alkaline Phasphatase (BAP) (UniProt P00634 22-471 = phosphatase)", "T1 construct": "Control", "T1 sequence (P00634 22-471)": "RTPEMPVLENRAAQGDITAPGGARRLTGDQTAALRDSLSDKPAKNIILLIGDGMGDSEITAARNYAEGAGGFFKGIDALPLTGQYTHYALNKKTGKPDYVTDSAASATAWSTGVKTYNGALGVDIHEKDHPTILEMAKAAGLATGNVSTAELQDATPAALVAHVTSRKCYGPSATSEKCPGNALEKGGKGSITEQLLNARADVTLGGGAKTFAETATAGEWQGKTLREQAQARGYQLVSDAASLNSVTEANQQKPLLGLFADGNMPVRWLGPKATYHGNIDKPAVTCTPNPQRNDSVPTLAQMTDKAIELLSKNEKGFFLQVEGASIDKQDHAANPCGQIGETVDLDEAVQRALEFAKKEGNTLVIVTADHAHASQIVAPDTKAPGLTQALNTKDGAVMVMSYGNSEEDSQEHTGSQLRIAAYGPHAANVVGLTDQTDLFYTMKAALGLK", "assay": "co-expression in HeLa cells, precipitation with Ni-NTA resin, western blot", "description": "Appropriate plasmid combination was transfected into HeLa cells using Lipofectamine Plus (Invitrogen). At 48 hours post-transfection, transfected cells were dissolved in the cell lysis buffer (10 mM Tris, pH 7.5, mM NaCl, 2 mM EDTA, 0.5% Triton X-100, 1 mM PMSF, and protease inhibitor cocktail (Roche Diagnostics, Mannheim, Germany)) to obtain total proteins. For secretary protein preparation, the culture medium was exchanged with a serum-free culture medium at 24 hours post transfection of the plasmid, followed by culturing again for 24 hours, and then the culture medium was collected. The collected culture medium was centrifuged to discard cell components. For immunoprecipitation of His-tagged proteins, 300 μg of total proteins and the culture medium were reacted with the Ni-NTA resin at 4 for 5 hours. After 5 hours, the reacted material was washed five times with a washing buffer (50 mM Tris, pH 7.5, 150 mM NaCl, and 0.5% Triton X-100), and then proteins attached to the resin were dissolved in the SDS sample buffer, followed by SDS-PAGE and then western blotting."}, "[2]": {"molecular_target": "T2, GLRX3C, GLRX3 mutant composed of only the C-terminal domains, expressed from 3xFLAG-CMV14/H14C (Homo sapiens, UniProt O76003 134-335)", "T2 construct": "Deletion construct; not shown: C-terminal 3xFLAG tag of the 3xFLAG-CMV14 vector and the BamHI-site linker to it", "T2 sequence": "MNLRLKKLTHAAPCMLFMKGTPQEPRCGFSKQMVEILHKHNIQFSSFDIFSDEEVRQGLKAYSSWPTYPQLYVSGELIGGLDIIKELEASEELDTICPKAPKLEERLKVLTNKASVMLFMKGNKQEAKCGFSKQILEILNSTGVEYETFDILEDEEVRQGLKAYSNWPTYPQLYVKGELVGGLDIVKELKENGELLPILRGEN", "assay": "co-expression in HeLa cells, precipitation with Ni-NTA resin, western blot"}}}
{"binder": "B1", "values": [{"measurement": "binding result", "setting": "[1]", "result": "no binding"}, {"measurement": "binding result", "setting": "[2]", "result": "no binding"}]}
